Data: publication PMC11147780

Key:
[1] = molecular target: 10E8-iGL3 antibody (fully germline-reverted 10E8); assay: SPR; conditions: chain shown with the change;; read off a plot
[2] = molecular target: 10E8 unmutated common ancestor antibody; assay: SPR; conditions: chain shown with the change;; read off a plot

| Binder | Kd [1] | Kd [2] |
| --- | --- | --- |
| MPER (scaffold without germline-targeting mutations) 10E8-GT12 (substitutions not printed in the panel; sequence in Extended Data Fig. 1h) (protein) ETGNVTQEDIIRALASPLIKDGMVDEDFAEKVIENESRYPSGLQAKGVGFAIPHVLGDYVRDNAISVGILDKPVNFSEWYQSPDPVPVRVVFMLAIRTWDDITNVMNWIKDVVLDEEFMKRLLNMSDEEIYRQIYTRISKAPNLSGINFSREYVRHLNGS | 1800 nM | 180 nM |
| MPER (scaffold without germline-targeting mutations) 10E8-GT11 (substitutions not printed in the panel; sequence in Extended Data Fig. 1h) (protein) VTQEDIIRALASPLIKDGMVDEDFAEKVIEQESRYPTGLQAKGVGVAIPHTLGDYVRDNAISVGILDKPVNFEGWYQSPDPVPVRVVFMLAIRTWDDIVNVLNWIKDVILDEEFMKRLLTMSDEEIYRQIYTRISKAPQLSGIHFKREYVRHLG | 20000 nM | 1400 nM |
| MPER (scaffold without germline-targeting mutations) 10E8-GT10.2 (substitutions not printed in the panel; sequence in Extended Data Fig. 1h) (protein) NVTQEDIIRALASPLIKDGMVDEDFAEYVIARENRSPTGLQAKGVGVAIPHTLGDYVRDNAISVGILDKPVNFSGWYQSPDPVPVRVVFMLAGRTWDDIVIVLKWIKDVILDEEFMKRLLNMSDEEIYRQIYTRISKAPNLSGINFSREYVRHLN | 11000 nM | 38 nM |
| 10E8-GT9.2 epitope scaffold P41Q (protein) EVTQEDIIRALASPLIKDGMVDEDFAEYVIEREKRSPTGLQVKGVGVAIPHTLGEYVRDNAISVGILDKPVNFEGWYQSPDPVPVRVVFMLAGRTWDDIVNVLKWIKDVILDEEFMKRLLTMSDEEIYRQIYTRISKAPGMRGIHFKREYVRHLG | 8000 nM | – |
